# In PMC9934072, “The mechanism of thia-Michael addition catalyzed by LanC enzymes” (Proceedings of the National Academy of Sciences of the …, 2023):
# Square brackets hold non-standard residues; d marks the D form. Ends that are not written are not given here. Dhb = C/C=C(\N)C(=O)O
# B1: acetyl-Ala-Erk peptide (peptide)
# peptide: Ac-DHTGFLAEYVATR
# notes: Numbers count on: the synthetic 13-mer; Its preparation is not described; also called Ac-Ala-Erk
# B2: (Z)-Dhb-containing 13-mer Erk peptide (DHTGFL-Dhb-EYVATR) (peptide)
# peptide: DHTGFL[Dhb]EYVATR
# modifications: also: in the crystal Dhb reacted with GSH to form a methyllanthionine
# notes: In PDB 8CZK density was seen only for the GFL-Dhb-EY segment, covalently joined to glutathione; also called Dhb-Erk; Dhb-Erk peptide
# What was measured:
# [1] = molecular target: (Z)-Dhb-containing 13-mer Erk peptide (DHTGFL-Dhb-EYVATR)
# [2] = molecular target: T1, LanCL1 Wild Type (human LanC-like protein 1) (human, UniProt O43813 1-399); test: fluorescence polarisation; competition: 20 μM LanCL1 WT, 20 nM fluorescein-Dha-Erk, acetyl peptide from 1000 μM in 2-fold dilutions; 15 min incubation; triplicates; dose-response fit, Ki = IC50/(1+[L]/Kd); conditions: both partners purified
# T1 construct: LanC-like protein 1 (LanCL1), human; also called LanCL1 WT; WT-LanCL1; source: E. coli Rosetta 2 (DE3), purified (HisTrap Ni-NTA, PD-10 desalting)
# [3] = molecular target: T2, human LanCL1, wild type (His6-LanCL1) (human, UniProt O43813 1-399); test: crystal structure; cocrystals of His6-LanCL1 with GSH soaked in precipitant solution with 2 to 5 mM Dhb-Erk peptide (30, 60 or 90 min); 1.91 Å; the crystal holds the product of GSH addition to the peptide; conditions: both partners purified
# T2 construct: LanCL1 (LanC-like protein 1), human; The tag is named on the protein for crystallisation; for the fluorescence polarisation nothing is said of it; also called WT LanCL1; native LanCL1; source: E. coli Rosetta(DE3), pET15b, purified (HisTrap, Superdex 200)
# T2 sequence (O43813 whole entry): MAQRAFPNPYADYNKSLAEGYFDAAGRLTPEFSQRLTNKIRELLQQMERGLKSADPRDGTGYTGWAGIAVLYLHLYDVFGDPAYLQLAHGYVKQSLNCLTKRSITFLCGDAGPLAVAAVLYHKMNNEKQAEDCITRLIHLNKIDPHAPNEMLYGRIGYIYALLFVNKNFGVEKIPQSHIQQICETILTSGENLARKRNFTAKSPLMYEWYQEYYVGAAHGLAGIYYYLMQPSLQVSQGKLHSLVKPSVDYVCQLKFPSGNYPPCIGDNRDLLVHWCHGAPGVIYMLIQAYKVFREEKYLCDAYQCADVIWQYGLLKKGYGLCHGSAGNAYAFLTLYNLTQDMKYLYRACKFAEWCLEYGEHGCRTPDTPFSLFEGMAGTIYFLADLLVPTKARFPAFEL
# T1 sequence (O43813 whole entry): as above
molecule,measurement,setting,value
LanCL1 C264A (from UniProt O43813 1-399) (enzyme),"K (m,peptide) of GSH addition to (Z)-Dhb-Erk peptide (LC-MS initial rates, saturating GSH)",[1],85 µM
LanCL1 C264A/H277A (from UniProt O43813 1-399) (enzyme),"K (m,peptide) of GSH addition to (Z)-Dhb-Erk peptide (LC-MS initial rates, saturating GSH)",[1],240 µM
LanCL1 C264A/H277D (from UniProt O43813 1-399) (enzyme),"kcat/K (m,peptide) of GSH addition to (Z)-Dhb-Erk peptide; substrate saturation could not be achieved",[1],6.17 M⁻¹ s⁻¹
LanCL1 C264A/H277K (from UniProt O43813 1-399) (enzyme),"kcat/K (m,peptide) of GSH addition to (Z)-Dhb-Erk peptide; substrate saturation could not be achieved",[1],2.67 M⁻¹ s⁻¹
LanCL1 C264A/H277N (from UniProt O43813 1-399) (enzyme),"K (m,peptide) of GSH addition to (Z)-Dhb-Erk peptide (LC-MS initial rates, saturating GSH)",[1],417 µM
LanCL1 C264A/H277Y (from UniProt O43813 1-399) (enzyme),"K (m,peptide) of GSH addition to (Z)-Dhb-Erk peptide (LC-MS initial rates, saturating GSH)",[1],69 µM
B1,IC50,[2],850 ± 490 µM
same,Ki,[2],849 ± 489 µM
B2,binding result,[3],binds
